From US20190351049A1 (Regeneron, published 2019)

B1: H2aM15278N (antibody, V domains shown)
VH: QVQLVQSGAEVKKPGASVKVSCKASGYTFTSHGISWVRQAPGQGFEWMGWIGTYNSNTDYAQNFQGRVTMTTDTSTSTAYMELRNLRSDDTAVYYCARERGPYYGMDVWGQGTTVTVSS
VL: EIVLAQSPGTLSLSPGERATLSCRASQSVNSNYLAWYQQKPGQAPRLLIYGASSRATGIPDRFSGSGSGTDFTLTISRLEPEDFAVYYCQQYGNSLTFGPGTKVDFK
B2: H1M15277N (antibody, V domains shown)
V domain 1: EVQLLESGGGLVQPGGSLRLSCAASGFTFSSYAMSWVRQAPGKGLEWVSAISGRGGNTYYADSVKGRFTISRDNSKNTLFLQMNTLRAEDTAVYYCAKDRGFGFFDIWGRGTLATVSS
V domain 2: not shown
B3: H1H15231P2 (antibody, V domains shown)
VH: QLQLQESGPGLVKPSETLSLTCTVSGGSISSNTYYWGWIRQPPGKGLEWIGTIYYTGNTYYKSSLKSRVTISVDTSRNQFSLKLTSVTAADTAVYYCARQFADLNYVDYWGQGTLVTVSS
VL: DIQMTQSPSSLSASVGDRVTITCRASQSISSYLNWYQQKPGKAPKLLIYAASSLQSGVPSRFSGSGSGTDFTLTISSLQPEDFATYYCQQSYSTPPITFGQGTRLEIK
B4: H1H15177P (antibody, V domains shown)
VH: EVQLVESGGGLVQPGGSLRLSCSASGFTFSSYDMSWVRQAPGKGLEWVSAIRGSGHTTYYADSVKGRFTISRDNSKNTLYLEMNSLRAEDTAVYYCVKDGSIVGFDPWGQGTLVTVSS
VL: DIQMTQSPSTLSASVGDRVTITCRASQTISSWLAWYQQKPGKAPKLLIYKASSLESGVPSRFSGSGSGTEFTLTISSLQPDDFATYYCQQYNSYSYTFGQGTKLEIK
B5: H1H15203P (antibody, V domains shown)
VH: EVQLVESGGDLVQPGGSLRVSCAASGFTFSNYDMYWVRQAPGKGLEWVSVISGIGATTYYADSVKGRFTISRDNSKNTVFLQMNSLRAEDTAVYYCVKGGPIVATDYWGQGTLVTVSS
VL: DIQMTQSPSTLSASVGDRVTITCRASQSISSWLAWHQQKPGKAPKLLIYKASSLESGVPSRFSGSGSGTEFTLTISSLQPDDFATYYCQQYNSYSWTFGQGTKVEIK
B6: H1H15253P2 (antibody, V domains shown)
VH: EVQLVESGGGLVQPGGSLRLSCVVSGFTSRNYAMSWVRQAPGKGLEWVSAISGSGGSTYYADSVKGRFTISRDNPKNTLYLQMNSLRAEDTALYYCAEDPGTSFDYWGQGTLVTVSS
VL: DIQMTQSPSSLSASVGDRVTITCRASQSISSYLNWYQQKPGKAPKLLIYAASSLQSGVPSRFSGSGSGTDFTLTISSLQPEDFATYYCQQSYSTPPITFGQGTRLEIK
B7: H1H15215P (antibody, V domains shown)
VH: EVQLVESGGGLVQPGGSLRLSCAASGFTFSTYGMSWVRQAPGKGLEWVSTIIGSGYNTYYSDSVKGRFTMSRDNSKSTLYLQMNSLRAEDTAVYYCTKEGPIIGTTNWGQGTLVTVSS
VL: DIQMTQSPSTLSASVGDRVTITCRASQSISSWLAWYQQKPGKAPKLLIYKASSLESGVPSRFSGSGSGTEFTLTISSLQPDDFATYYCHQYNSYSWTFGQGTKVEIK
B8: H1H15233P2 (antibody, V domains shown)
VH: EVQLVESGGGLVQPGGSLRLSCAASGFSFSSYGMNWVRQAPGKGLEWVSAISGRGGNTYSADSVKGRFTISRDNSKNTLFLQMNGLRAEDSAFYYCAKVGTYSSSSPFDYWGQGTLVTVSS
VL: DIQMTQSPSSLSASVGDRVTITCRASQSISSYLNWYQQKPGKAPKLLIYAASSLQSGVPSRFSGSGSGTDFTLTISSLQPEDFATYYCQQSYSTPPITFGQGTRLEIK
B9: H1H15249P2 (antibody, V domains shown)
VH: QLQLQESGPGLVKPSETLSLTCTVSGGSISNNNYYWGWIRQPPGKGLDWIGSIYYSGNTYYNPSLKSRVTISVDTSKNQFSLKMSSVTATDTALYYCARQGADHNWVDPWGQGTLVTVSS
VL: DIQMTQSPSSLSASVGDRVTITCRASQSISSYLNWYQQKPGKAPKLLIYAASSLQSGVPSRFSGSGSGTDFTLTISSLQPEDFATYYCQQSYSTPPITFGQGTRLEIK
B10: H1H15208P (antibody, V domains shown)
VH: EVQLVESGGDLVQPGGSLRLSCTASGFTFSNYEMNWVRQAPEKGLDWVSFISSSGGAIYYADSVKGRFTISRDNAKNSLYLQMNSLRAEDSAIYFCARSDSGGNSRYWGQGTLVTVSS
VL: DIQMTQSPSSVSASVGDRVTVTCRASQDISNWLVWYQQKPGKAPKFLIYAASSLQSGVPSRFSGSGSGTDFTLTISSLQPEDFATYYCQQANSFPPTFGGGTKVEIK
B11: H1H15188P (antibody, V domains shown)
VH: QVQLVQSGAEVKKPGSSVKVSCKASGGSFSVYAISWVRQAPGQGLEWMGGIIPIFGTANYAQKFQDRFTITTDESTSTAYMELSSLRSEDTAMYYCAREGDIVVLPAGKGGMDVWGQGTTVTVSS
VL: DIVMTQSPLSLPVTPGEPASISCRSSQSLLHGNGYNYLDWYLQKPGQSPQLLIYLVSHRASGVPDRFSGSGSGTDFTLKISRVEAEDVGVYYCMQALQSPWTFGQGTKVEIK
B12: H1H15237P2 (antibody, V domains shown)
VH: EVQLVESGGGLVQPGGSLRLSCAASGFTSNSYPMSWVRQAPGKGLEWVSGISGRGGNTYYADSVKGRFTISRDNSKNTLYLQMNSLRVEDTAVYYCAETGTAFDYWGQGTLVTVSS
VL: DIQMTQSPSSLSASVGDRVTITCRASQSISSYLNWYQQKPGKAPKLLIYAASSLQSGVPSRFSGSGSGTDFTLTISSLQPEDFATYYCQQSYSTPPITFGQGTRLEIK
B13: H1H15228P2 (antibody, V domains shown)
VH: EVQLVESGGGLVQPGGSLRLSCAVFGFTFSGYAMSWVRQAPGKGLEWVSAISGGGGSTYYTDSVKGRFTISRDNSKNTLYLQMNSLRAEDTAVYYCASYWNNGMDVWGQGTTVTVSS
VL: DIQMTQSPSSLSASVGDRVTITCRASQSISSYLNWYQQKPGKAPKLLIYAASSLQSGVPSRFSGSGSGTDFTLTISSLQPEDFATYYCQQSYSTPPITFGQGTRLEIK
B14: H1H15211P (antibody, V domains shown)
VH: EVQLVESGGGLVQPGGSLRLSCVVSGFTFSNYDMSWVRQAPGRGLEWVSAIRGSGFNTYYADSVKGRFTISRDNSKNTLYLQMNSLRAEDTAVYYCAKDGSIVSMDYWGQGTLVTVSS
VL: not shown

These binders were tested against T1, MERS RBD-hFc (MERS-CoV (isolate EMC/2012)) (assay: ELISA on coated MERS RBD-hFc, hybridoma supernatant 1:50, absorbance at 450 nm).

Binder | ELISA Binding
B1 | 2.42
B2 | 2.68

The binders below were run against T1, MERS RBD-hFc (assay: SPR Biacore, captured mAb, 25 C).

Binder | Kd | koff | kon | t1/2
B3 | 116 pM | 7.44e-05 s⁻¹ | 639000 M⁻¹ s⁻¹ | 155 min
B4 | 390 pM | 0.000192 s⁻¹ | 493000 M⁻¹ s⁻¹ | 60 min
B5 | 273 pM | 0.000121 s⁻¹ | 443000 M⁻¹ s⁻¹ | 95 min
B6 | 348 pM | 0.000124 s⁻¹ | 356000 M⁻¹ s⁻¹ | 93 min
B7 | 671 pM | 9.67e-05 s⁻¹ | 144000 M⁻¹ s⁻¹ | 119 min
B1 | 506 pM | 0.000873 s⁻¹ | 1.72e+06 M⁻¹ s⁻¹ | 13 min
B8 | 229 pM | 4.56e-05 s⁻¹ | 199000 M⁻¹ s⁻¹ | 253 min
B9 | 227 pM | 7.91e-05 s⁻¹ | 349000 M⁻¹ s⁻¹ | 146 min
B10 | 553 pM | 0.000243 s⁻¹ | 439000 M⁻¹ s⁻¹ | 48 min
B11 | 82.5 pM | 0.000122 s⁻¹ | 1.48e+06 M⁻¹ s⁻¹ | 95 min
B12 | 274 pM | 0.00012 s⁻¹ | 439000 M⁻¹ s⁻¹ | 96 min
B13 | 418 pM | 0.000185 s⁻¹ | 443000 M⁻¹ s⁻¹ | 63 min
B14 | 77.5 pM | 8.72e-05 s⁻¹ | 1.13e+06 M⁻¹ s⁻¹ | 133 min
B2 | 346 pM | 0.00091 s⁻¹ | 2.63e+06 M⁻¹ s⁻¹ | 13 min

Each binder was assayed against T1, MERS RBD-hFc (assay: SPR Biacore, captured mAb, 37 C).

Binder | Kd | koff | kon | t1/2
B3 | 139 pM | 9.19e-05 s⁻¹ | 659000 M⁻¹ s⁻¹ | 126 min
B4 | 1230 pM | 0.000701 s⁻¹ | 568000 M⁻¹ s⁻¹ | 16 min
B5 | 645 pM | 0.000323 s⁻¹ | 501000 M⁻¹ s⁻¹ | 36 min
B6 | 1440 pM | 0.000629 s⁻¹ | 436000 M⁻¹ s⁻¹ | 18 min
B7 | 1680 pM | 0.000233 s⁻¹ | 138000 M⁻¹ s⁻¹ | 50 min
B1 | 519 pM | 0.00113 s⁻¹ | 2.17e+06 M⁻¹ s⁻¹ | 10 min
B8 | 127 pM | 4.74e-05 s⁻¹ | 374000 M⁻¹ s⁻¹ | 244 min
B9 | 288 pM | 0.000127 s⁻¹ | 442000 M⁻¹ s⁻¹ | 91 min
B10 | 1010 pM | 0.000531 s⁻¹ | 525000 M⁻¹ s⁻¹ | 22 min
B11 | 167 pM | 0.000265 s⁻¹ | 1.59e+06 M⁻¹ s⁻¹ | 44 min
B12 | 797 pM | 0.000409 s⁻¹ | 514000 M⁻¹ s⁻¹ | 28 min
B13 | 975 pM | 0.000464 s⁻¹ | 476000 M⁻¹ s⁻¹ | 25 min
B14 | 194 pM | 0.00016 s⁻¹ | 827000 M⁻¹ s⁻¹ | 72 min
B2 | 671 pM | 0.00218 s⁻¹ | 3.24e+06 M⁻¹ s⁻¹ | 5 min

These binders were tested against T1, MERS RBD-hFc (assay: SPR (Biacore), hybridoma supernatant antibody captured, MERS RBD-hFc as analyte).

Binder | Kd | t½
B1 | 2050 pM | 13.5 min
B2 | 1720 pM | 11.1 min
